Laboratory results reported in publication PMC10747188.
Where a chain is given by its changes, count along the chain named. Names may count otherwise.

Experiments:
[1] = target: T1, MFSD2a, endogenous on human cell lines (human (endogenous in HEK293T, Jurkat, HUVEC, U87-MG)) (UniProt Q8NA29)
T1 sequence: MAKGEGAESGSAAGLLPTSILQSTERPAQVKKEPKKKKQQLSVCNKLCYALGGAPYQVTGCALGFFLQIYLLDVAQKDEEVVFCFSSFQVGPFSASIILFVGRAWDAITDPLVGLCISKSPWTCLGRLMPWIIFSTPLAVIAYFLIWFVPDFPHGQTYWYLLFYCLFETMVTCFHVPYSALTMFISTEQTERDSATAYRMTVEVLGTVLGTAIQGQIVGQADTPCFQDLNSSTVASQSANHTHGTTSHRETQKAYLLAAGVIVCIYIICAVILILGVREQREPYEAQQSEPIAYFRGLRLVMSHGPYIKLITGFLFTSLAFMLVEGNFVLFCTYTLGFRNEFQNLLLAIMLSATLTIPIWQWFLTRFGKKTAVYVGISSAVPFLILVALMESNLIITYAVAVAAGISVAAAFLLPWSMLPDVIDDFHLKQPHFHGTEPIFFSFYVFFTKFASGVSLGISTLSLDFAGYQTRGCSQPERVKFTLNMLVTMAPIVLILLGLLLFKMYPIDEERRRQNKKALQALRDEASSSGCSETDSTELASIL

[2] = target: simian MFSD2a, endogenous on Cos-7 cells (simian (endogenous in Cos-7))
[3] = target: T1, MFSD2a, endogenous on human cell lines (human (endogenous in HEK293T, Jurkat, HUVEC, U87-MG)); remark: listed apart in the source
[4] = target: T1, MFSD2a, endogenous on human cell lines (human (endogenous in HEK293T, Jurkat, HUVEC, U87-MG)); remark: listed apart in the source
[5] = target: T2, MFSD2a N217Q-V5, expressed in HeLa cells (UniProt Q8NA29)
T2 sequence: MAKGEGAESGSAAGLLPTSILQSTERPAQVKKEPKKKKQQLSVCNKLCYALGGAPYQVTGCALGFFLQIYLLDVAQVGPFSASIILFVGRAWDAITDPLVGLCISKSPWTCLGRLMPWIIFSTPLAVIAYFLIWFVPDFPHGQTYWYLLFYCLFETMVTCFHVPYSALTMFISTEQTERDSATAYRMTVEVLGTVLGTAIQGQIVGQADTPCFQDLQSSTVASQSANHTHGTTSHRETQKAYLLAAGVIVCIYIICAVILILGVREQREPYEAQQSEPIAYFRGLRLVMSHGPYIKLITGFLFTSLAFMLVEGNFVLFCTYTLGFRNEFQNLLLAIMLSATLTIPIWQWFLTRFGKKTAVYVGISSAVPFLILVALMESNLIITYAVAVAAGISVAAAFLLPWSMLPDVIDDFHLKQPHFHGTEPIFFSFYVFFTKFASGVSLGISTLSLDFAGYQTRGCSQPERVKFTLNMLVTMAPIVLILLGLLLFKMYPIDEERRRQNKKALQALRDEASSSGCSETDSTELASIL

[6] = target: T3, MFSD2a N227Q-V5, expressed in HeLa cells (UniProt Q8NA29)
T3 sequence: T2 sequence with Q217N, N227Q

[7] = anti-V5 immunofluorescence, confocal, Cos-7 cells; settings: glycan lost; control: wild-type MFSD2a
[8] = anti-V5 Western blot of transfected cells; settings: glycan lost; control: wild-type MFSD2a
[9] = luciferase infection assay in transfected HeLa cells; settings: glycan lost; control: wild-type MFSD2a

B1: Syncytin-2, expressed in HEK293T cells (cell fusion assay) (natural protein)
chain: AYRHPDFPLLEKAQQLLQSTGSPYSTNCWLCTSSSTETPGTAYPASPREWTSIEAELHISYRWDPNLKGLMRPANSLLSTVKQDFPDIRQKPPIFGPIFTNINLMGIAPICVMAKRKNGTNVGTLPSTVCNVTFTVDSNQQTYQTYTHNQFRHQPRFPKPPNITFPQGTLLDKSSRFCQGRPSSCSTRNFWFRPADYNQCLQISNLSSTAEWVLLDQTRNSLFWENKTKGANQSQTPCVQVLAGMTIATSYLGISAVSEFFGTSLTPLFHFHISTCLKTQGAFYICGQSIHQCLPSNWTGTCTIGYVTPDIFIAPGNLSLPIPIYGNSPLPRVRRAIHFIPLLAGLGILAGTGTGIAGITKASLTYSQLSKEIANNIDTMAKALTTMQEQIDSLAAVVLQNRRGLDMLTAAQGGICLALDEKCCFWVNQSGKVQDNIRQLLNQASSLRERATQGWLNWEGTWKWFSWVLPLTGPLVSLLLLLLFGPCLLNLITQFVSSRLQAIKLQTNLSAGRHPRNIQESPF
[1]
  cellular fusion index of Syn-2-transfected HEK293T cells with 4 µM recombinant Gal-1 for 24 h (8.56% +/− 0.6 with PBS; 5.76% +/− 0.22 with Gal-1 and 50 mM lactose): 17.5%

B2: Syncytin-2 (Flag-tagged), on pseudotyped NL4.3 virions (natural protein)
chain: B1 chain
[2]
  fold-change in infectivity (luciferase) of Syn-2-pseudotyped viruses on Cos-7 cells with 4 µM Gal-1 against virus only; abolished by 50 mM lactose: 6.93 fold
[3]
  fold-change in infectivity (luciferase) of Syn-2-pseudotyped viruses on HEK293T cells with 4 µM Gal-1 against virus only; abolished by 50 mM lactose: 5.51 fold
[4]
  fold-change in infectivity (luciferase) of Syn-2-pseudotyped viruses on HUVEC cells with 4 µM Gal-1 against virus only; inhibited by 50 mM lactose: 33.4 fold
  fold-change in infectivity (luciferase) of Syn-2-pseudotyped viruses on Jurkat cells with 4 µM Gal-1 against virus only; inhibited by 50 mM lactose: 14.1 fold
  fold-change in infectivity (luciferase) of Syn-2-pseudotyped viruses on U87-MG cells with 4 µM Gal-1 against virus only; inhibited by 50 mM lactose: 6.76 fold
[5]
  fold-change in infectivity (luciferase) of Syn-2-pseudotyped viruses on N217Q-MFSD2a-transfected HeLa cells with Gal-1 against control; counteracted by lactose: 10.8 fold
[6]
  fold-change in infectivity (luciferase) of Syn-2-pseudotyped viruses on N227Q-MFSD2a-transfected HeLa cells with Gal-1 against control; counteracted by lactose: 10.2 fold

B3: MFSD2a: N217Q (protein)
parent chain: T2 sequence with Q217N
[7]
  localisation_or_trafficking: no change
[8]
  expression_or_secretion: no change
[9]
  other: galectin-1 enhancement of Syn-2 pseudovirus infectivity, fold_change: no change, 10.8-fold +/− 3.96 vs 9.3 +/− 1.52

B4: MFSD2a: double mutant (protein)
parent chain: T2 sequence with Q217N
[8]
  expression_or_secretion: decreases

B5: MFSD2a: N227Q (protein)
parent chain: T2 sequence with Q217N
[7]
  localisation_or_trafficking: no change
[8]
  expression_or_secretion: no change
[9]
  other: galectin-1 enhancement of Syn-2 pseudovirus infectivity, fold_change: no change, 10.2-fold +/− 4.75 vs 9.3 +/− 1.52
